# Molecular target: human NCC_(cryo1) (human) (UniProt P55017)
# Assay: cryo-EM structure
substance,measurement,value
human NCC_(cryo1) (from UniProt P55017 1-1021) (natural protein),stoichiometry N,2

# — PMC10030352
